The results in this text go back to US20170283486A1.

The target in test [1] is monomeric full length gp120 of BaL isolate (HIV-1 isolate BaL). Nature of the test: SPR, mAb immobilised, 1:1 Langmuir. Background: SPR reads the build-up and loss of mass on a sensor chip optically.
Test [2] has as its target single-chain gp120BaL-sCD4 complex (FLSC) (HIV-1 isolate BaL) (UniProt P01730). Nature of the test: SPR, mAb immobilised, 1:1 Langmuir.
For test [3] the target is unchanged. Nature of the test: isothermal titration calorimetry, A32 IgG. A general note: ITC needs no label: the signal is the heat of the interaction.

Turning to mAb JR4 (antibody), in test [1], the Kd (as a rule, the equilibrium constant for the complex coming apart) was 2.34 nM; the koff (as a rule, a measure of how fast the partners let go of each other) amounted to 0.000611 s⁻¹; the kon (as a rule, the second-order rate constant of association) was found to be 262000 M⁻¹ s⁻¹. Further, in test [2], the Kd came to 0.18 nM; the fold change of KD, FLSC relative to gp120BaL was 13 fold; the fold change of ka, FLSC relative to gp120BaL was 2.5 fold; the fold change of kd, FLSC relative to gp120BaL came to 5.3 fold. In test [2], this substance yielded a koff of 0.000116 s⁻¹ and a kon of 643000 M⁻¹ s⁻¹.

In test [1], mAb N60-i3 (antibody) had a Kd of 2.03 nM, a koff of 0.000512 s⁻¹ and a kon of 253000 M⁻¹ s⁻¹. In test [2], this substance had a Kd of 0.25 nM; a fold change of KD, FLSC relative to gp120BaL of 8 fold; a fold change of ka, FLSC relative to gp120BaL of 4.9 fold; a fold change of kd, FLSC relative to gp120BaL of 1.6 fold. In test [2], this substance registered a koff of 0.000314 s⁻¹ and a kon of 1.24e+06 M⁻¹ s⁻¹.

With mAb N5-i5 (antibody), in test [1], the Kd is 5.03 nM, the off-rate (koff) is 0.00036 s⁻¹ and the kon was found to be 72000 M⁻¹ s⁻¹. For the same substance, in test [2], the Kd was 0.29 nM; the fold change of KD, FLSC relative to gp120BaL worked out at 17.3 fold; the fold change of ka, FLSC relative to gp120BaL was determined as 11.5 fold; the fold change of kd, FLSC relative to gp120BaL turned out to be 1.5 fold. In test [2], this substance yielded a koff of 0.000238 s⁻¹ and a kon of 825000 M⁻¹ s⁻¹.

As for mAb 2.2c (antibody), in test [1], the Kd stood at 12 nM, the koff was 0.000875 s⁻¹ and the kon turned out to be 73000 M⁻¹ s⁻¹. Also, in test [2], the Kd came out at 0.5 nM; the fold change of KD, FLSC relative to gp120BaL was 24 fold; the fold change of ka, FLSC relative to gp120BaL was 15.7 fold; the fold change of kd, FLSC relative to gp120BaL came out at 1.6 fold. In test [2], this substance displayed a koff of 0.000556 s⁻¹ and an association rate constant (kon) of 1.15e+06 M⁻¹ s⁻¹.

In test [1], mAb A32 (antibody) registered a Kd of 3.2 nM, a koff of 0.000437 s⁻¹ and a kon of 139000 M⁻¹ s⁻¹. In test [2], this substance gave a Kd of 0.23 nM; a fold change of KD, FLSC relative to gp120BaL of 13.9 fold; a fold change of ka, FLSC relative to gp120BaL of 3.2 fold; a fold change of kd, FLSC relative to gp120BaL of 4.3 fold. In test [2], this substance yielded a koff of 0.000102 s⁻¹ and a kon of 443000 M⁻¹ s⁻¹. In test [3], the Kd was 11.5 nM and the ΔH was -3.15 kcal/mol.
